# According to patent US10011659B2, “Compositions and methods for treating cancer resistant to a tyrosine kinase inhibitor (TKI)” (Yeda Research and Development Co. Ltd., priority 2014, dated 2018):
# “Also recorded” adds a separate entry of the source.
# Assays:
# H1975 cells = assay: MTT cell survival assay; type: cell-based, human; details: for ability to inhibit survival of cultured NSCLC cells: 4 days, versus other anti-EGFR, anti-HER2, anti-HER3 mAbs (FIG. 3)
# Experimental: (§1) Cell cultures—The H1975 (ATCC; NCI-H1975_CRL-5908) lung cancer cell line (EGFR mutations: L858R and T790M, ATCC; Rockville, Md.), PC9 and erlotinib-resistant PC9ER lung cancer cells (de1746-750+T790M) (described in 16) were maintained in RPMI-1640 supplemented with 10% FCS (Life technology) and antibiotics. PC9ER cells resistant to AZD-9291, denoted as PC9ER-AZDR cells, were generated by incubating PC9ER cells with AZD-9291 for three months. The dose, initially provided at 0.5 nM, was increased every 4 days per 1.5 fold up to 2.5 μM. NL20 (ATCC; NL20_CRL-2503), an immortalized human bronchial epithelial cell line (ATCC, Rockville, Md.) was maintained in F12K medium as recommended by the ATCC. Co-cultures in a ratio of 1:1 of WI38 (ATCC; CCL-75) and PC9ER or H1975 cells were maintained in DME medium supplemented with sodium pyruvate and fetal calf serum (FCS 5%; Life Technology).
# (§2) Cell growth and survival—Cell survival was assessed using the 3-(4,5-dimethylthiazol-2-yl)-2,5 diphenyl tetrazolium bromide (MTT) assay (Sigma Cat#M2003). Cells were plated on 96-wells plates (2,000 cells/well) in triplicates. The medium was changed the following day and cells were treated as indicated. Following 3-4 days of incubation, MTT reagent was added to the cells for one hour followed by dissolving of the formazan crystals in SDS-DMF solution. Absorbance was measured using a microplate reader, Biorad Model 680, at 570 nm.
# PC9 cells = assay: MTT cell survival assay; type: cell-based, human; details: 3 days treatment with increasing doses
# Experimental: as §1, §2
# PC9ER cells = assay: MTT cell survival assay; type: cell-based, human; details: for ability to inhibit survival of cultured NSCLC cells: 4 days, versus other anti-EGFR, anti-HER2, anti-HER3 mAbs (FIG. 3)
# Experimental: as §1, §2
# PC9ER NSCLC cells = assay: Tumorigenic growth in-vivo, xenograft; set-up: species or system CD1-nu/nu mice
# Experimental: CD1/nude mice (Harlan Laboratories) were randomized in groups of ten mice and injected subcutaneously in the right flank with H1975 lung cancer cells (3×10^6 per mouse) or with PC9ER lung cancer cells (4×10^6 per mouse). PBS or mAbs were injected intraperitoneally once every three days at a total dose of 200 μg per mouse per injection starting 11 days following cells injection, until tumors reached the size of 1,500 mm^3. […] Few of the tumors were harvested from mice at the indicated time points and taken for further evaluation. Survival of the tumor bearing mice was recorded and depicted by Kaplan-Meier analysis.
# PC9ER-AZDR cells [1] = assay: Tumorigenic growth in-vivo, xenograft; details: erlotinib 50 mg/kg/d; AZD9291 1 and 5 mg/kg/d; 3×mAbs 0.2 mg/mouse/injection once every three days
# Experimental: A derivative of PC9ER cells (erlotinib-resistant) was implanted in the flank of immune compromised mice. Vehicle, erlotinib (50 mg/kg/d), low-dose AZD9291 (L; 1 mg/kg/d) and high-dose AZD9291 (H; 5 mg/kg/d) were daily administrated by oral gavage, while the 3×mAbs (triple antibody combination; CTX, TRZ, 33; 0.2 mg/mouse/injection) were administrated once every three days by intraperitoneal injection. Data are means±SEM from 9 mice in each group.
# Tumorigenic growth in-vivo—The animal studies were approved by the Weizmann Institute's Review Board (IRB). […] In experiments evaluating the effect of the TKI AZD-9291, Vehicle (Vehicle formulation: HPMC 0.5% (sigma Cat#56340), Tween80 0.1% (Sigma Cat #P8074 in water), Erlotinib at a dose of 50 mg/kg per injection, or AZD9291 at a dose of 1 or 5 mg/kg per injection were injected daily intraperitoneally. In one experiment (FIG. 17), mice were treated daily with Erlotinib at a dose of 50 mg/kg per injection until tumors reached a size of 800 mm^3 and only then were treated as indicated. Tumor volume was evaluated twice a week and body weight was evaluated once a week. Mice were euthanized when tumor size reached 1,500 mm^3. […] Survival of the tumor bearing mice was recorded and depicted by Kaplan-Meier analysis.
# PC9ER-AZDR cells [2] = assay: MTT cell survival assay; type: cell-based, human; details: 72 hours, increasing doses
# Experimental: as §1, §2
# [3] = test system: EGFR phosphorylation in PC9ER-AZDR cells; assay: Western blot (immunoblot) of EGFR phosphorylation; type: cell-based, human; details: 1 μM, 6 hours
# H1975 NSCLC cells = assay: Tumorigenic growth in-vivo, xenograft; set-up: species or system CD1-nu/nu mice; details: for tumor growth: mAbs intraperitoneally once every three days from day 11, total 200 μg per mouse per injection
# Experimental: Tumorigenic growth in-vivo—The animal studies were approved by the Weizmann Institute's Review Board (IRB). CD1/nude mice (Harlan Laboratories) were randomized in groups of ten mice and injected subcutaneously in the right flank with H1975 lung cancer cells (3×10^6 per mouse) or with PC9ER lung cancer cells (4×10^6 per mouse). PBS or mAbs were injected intraperitoneally once every three days at a total dose of 200 μg per mouse per injection starting 11 days following cells injection, until tumors reached the size of 1,500 mm^3. In experiments evaluating the effect of the TKI AZD-9291, Vehicle (Vehicle formulation: HPMC 0.5% (sigma Cat#56340), Tween80 0.1% (Sigma Cat #P8074 in water), Erlotinib at a dose of 50 mg/kg per injection, or AZD9291 at a dose of 1 or 5 mg/kg per injection were injected daily intraperitoneally. In one experiment (FIG. 17), mice were treated daily with Erlotinib at a dose of 50 mg/kg per injection until tumors reached a size of 800 mm^3 and only then were treated as indicated. Tumor volume was evaluated twice a week and body weight was evaluated once a week. Mice were euthanized when tumor size reached 1,500 mm^3. Few of the tumors were harvested from mice at the indicated time points and taken for further evaluation. Survival of the tumor bearing mice was recorded and depicted by Kaplan-Meier analysis.
# [4] = test system: EGFR, HER2, HER3 and phosphorylated forms in PC9ER and H1975 cells; assay: Western blot after long-term exposure to anti-EGFR mAb; type: cell-based, human; details: resistant cell lines
# Experimental: (§3) Western blot analysis—Cells were grown under specified conditions or treated as indicated. Following the cells were washed twice with cold PBS and scraped into lysis buffer [50 mM Hepes (pH 7.5), 10% glycerol, 150 mM NaCl, 1% Triton X-100, 1 mM EDTA, 1 mM EGTA, 10 mM NaF, 0.1 mM Na3VO4, and a complete protease inhibitor cocktail]. Thereafter, lysates were centrifuged at 14,000 g for 15 minutes at 4° C. The supernatant was used for subsequent procedures. Western blot analyses were conducted following protein separation using gel electrophoresis and transfer to nitrocellulose membranes. Immunoblotting was performed according to the antibody manufacturers' recommendation. Blocking was done using 5% milk in PBST (0.5% Tween20 Sigma Cat#P9416). Antibody binding to membrane blots was detected using horseradish peroxidase—secondary antibodies (Jackson ImmunoResearch Laboratories), followed by treatment with ECL Western blotting detection reagents (GE Healthcare).
# [5] = test system: EGFR, HER2, HER3, AKT, ERK and their phosphorylated forms in PC9ER cells; assay: Western blot time course of receptors and downstream pathways; type: cell-based, human; details: 10 μg/ml; for ERK activation / re-activation (phosphorylation): late peak at about 24 hours
# Experimental: as §3
# [6] = 3 days treatment with increasing doses, EGFR T790M
molecule,measurement,setting,value
C#Cc1cccc(Nc2ncnc3cc(OCCOC)c(OCCOC)cc23)c1 [erlotinib],cell survival,H1975 cells; [6],exhibited resistance
same,cell survival,PC9 cells,strongly inhibited
same,cell survival,PC9ER cells; [6],exhibited resistance
same,"tumor growth, 1st line phase",PC9ER NSCLC cells; erlotinib 50 mg/kg/d versus control group,no differences were noted
same,tumor growth / tumor volume,PC9ER-AZDR cells [1],Neither erlotinib nor AZD9291 (at both low and high doses) were able to significantly inhibit tumor growth
C=CC(=O)Nc1cc(Nc2nccc(-c3cn(C)c4ccccc34)n2)c(OC)cc1N(C)CCN(C)C [AZD-9291],survival / sensitivity (MTT),PC9ER-AZDR cells [2],lost sensitivity
same,survival / sensitivity (MTT),PC9ER-AZDR cells [2]; listed as AZD9291,clearly demonstrated resistance
same,EGFR phosphorylation,[3],remained phosphorylated
same,EGFR phosphorylation,[3]; listed as AZD9291,failed to inhibit EGFR phosphorylation
same,body weight gain,"H1975 NSCLC cells; AZD9291 5 mg/kg/day, compared with the triple mAb combination",slightly inhibited body weight gain
same,growth of the erlotinib-resistant human NSCLC tumor,"H1975 NSCLC cells; AZD9291 5 mg/kg/day, triple combination of antibodies (CTX+TRZ+33)",comparably inhibited growth
same,tumor relapse in post-treatment phase,"PC9ER NSCLC cells; erlotinib 1st line to approximately 550 mm^3, 2nd line treatment to day 50, then no treatment, AZD9291 1 or 5 mg/kg/d, 3×mAbs 0.2 mg/mouse/injection",relapse of tumors; also recorded: rapid and dramatic relapse
same,tumor growth / tumor volume,PC9ER-AZDR cells [1],Neither erlotinib nor AZD9291 (at both low and high doses) were able to significantly inhibit tumor growth
"mAb 33: anti-HER3 monoclonal antibody, clone NG33; VH SEQ ID NO: 5, Vkappa SEQ ID NO: 6 (antibody, V domains shown, anti-HER3 33 VH amino acid sequence; anti-HER3 33 Vkappa amino acid sequence) VH: DVQLQESGPGLVKPSQSLSLTCSVTGYSITSGFYWSWIRQFPGNKLEWMGYIAYDGTSNYNPSLKNRISITRDTSKNQFFLKLKSVTNEDTPTYYCARGGGYYGQLLDYWGQGTSVTVSS VL: DARMTQSPSSLSASLGDRVTISCRASQDISNYLNWYQQKPDGTVKVLIYNTAKLHSGVPSRFSGSGSGTDYSLTISNLEQEDFATYFCQQGKTLPWTFGGGTKLELK",ability to inhibit survival of cultured NSCLC cells,H1975 cells; 10 μg/ml,superior ability to inhibit survival
same,ability to inhibit survival of cultured NSCLC cells,PC9ER cells; 10 μg/ml,superior ability to inhibit survival
same,tumor growth,H1975 NSCLC cells,"neither anti-HER2, anti-HER3 nor combined anti-HER2 and anti-HER3 treatment repressed tumor growth"
"mAb 565: anti-EGFR monoclonal antibody, clone 565, CNCM I-4262; VH SEQ ID NO: 1, Vkappa SEQ ID NO: 2 (antibody, V domains shown, not fully specified; anti-EGFR 565 VH amino acid sequence; EGFR 565 kappa amino acid sequence; (11)..(11) Xaa can be any naturally occurring amino acid) VH: QVQLQQSGAELVKPGASVKLSCKASGYTFTNYWIHWVKQRPGQGLEWIGEIGPINGRSNYIEKFKTKATLTVDKSSSTTYLHLSSLTSEDSAVYYCAREDDYDGKAMDYWGQGTSVTVSS VL: DIVMTQSHKFXSTSVGDRVSITCKASQNVGTAVAWYQQKPGQSPKLLIYWTSTRHTGVPDRFTGTGSGTEFTLTINNVQSEDLADYFCQQYSGYSFGGGTKLELKR",inhibition of survival,"H1975 cells; 10 μg/ml, 4 days of incubation",approximately 40%
same,ability to inhibit survival of cultured NSCLC cells,H1975 cells; 10 μg/ml,superior ability to inhibit survival
same,inhibition of survival,"PC9ER cells; 10 μg/ml, 4 days of incubation",approximately 40%
same,ability to inhibit survival of cultured NSCLC cells,PC9ER cells; 10 μg/ml,superior ability to inhibit survival
same,HER2 and HER3 and their active tyrosine phosphorylated forms,[4],up-regulation
same,expression levels of EGFR,[4],gradual decrease
same,EGFR protein level (degradation),[5],almost disappeared
same,ERK activation / re-activation (phosphorylation),[5],hyper-phosphorylation
same,phosphorylation of EGFR,[5]; listed as anti-EGFR mAb,initially reduced; also recorded: strikingly strong re-phosphorylation
same,tumor growth,H1975 NSCLC cells,partly inhibited tumor growth
"mAb 12: anti-HER2 monoclonal antibody, clone N12, CNCM I-4112; VH SEQ ID NO: 3, Vkappa SEQ ID NO: 4 (antibody, V domains shown, of anti-HER2 N12 VH amino acid sequence; anti-HER2 N12 Vkappa amino acid sequence) VH: QVQLQQSGAELVRPGDSVNLSCKASGYTFTSYWMYWIKQRPDQGLESIGNIHPNNGGTNYSGKFKNKASLTVDKSSTTAYMQLSSLTSEDSAVYFCARLTGIGMDYWGQGTSVIVSS VL: DIVMTQSHKFMSTSVGDRVSITCKASQNVGTAVAWYQQKPGQSPKLLIYWTSTRHTGVPDRFTGTGSGTEFTLTINNVQSEDLADYFCQQYSGYSFGGGTRLEIKL",ability to inhibit survival of cultured NSCLC cells,H1975 cells; 10 μg/ml,superior ability to inhibit survival
same,ability to inhibit survival of cultured NSCLC cells,PC9ER cells; 10 μg/ml,superior ability to inhibit survival
same,ERK activation / re-activation (phosphorylation),[5],induced ERK hyper-phosphorylation
same,tumor growth,H1975 NSCLC cells,"neither anti-HER2, anti-HER3 nor combined anti-HER2 and anti-HER3 treatment repressed tumor growth"
